# Source: PMC6386705
# Where two headings read alike, the source gives them in different places.
# What was measured:
# HuR RRM3 [1] = biological target: T1, HuR RRM3 (human, UniProt Q15717 241-326); assay: NMR
# HuR RRM3 [2] = biological target: T1, HuR RRM3; assay: ITC
# HuR RRM3 [3] = biological target: T1, HuR RRM3; assay: ITC; remark: listed apart in the source
# HuR RRM3 FY = HuR RRM3 FY (human, UniProt Q15717 241-326, F247A;Y249A); assay: NMR
# HuR RRM12 = HuR RRM12 (human, UniProt Q15717 2-189); assay: ITC
# Chain of HuR RRM12 (Q15717 2-189): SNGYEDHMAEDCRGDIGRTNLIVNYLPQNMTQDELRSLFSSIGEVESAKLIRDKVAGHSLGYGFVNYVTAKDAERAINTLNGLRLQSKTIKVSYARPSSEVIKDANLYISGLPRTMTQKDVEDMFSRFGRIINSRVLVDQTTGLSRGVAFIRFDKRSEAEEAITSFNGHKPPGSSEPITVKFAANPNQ
# HuR RRM3 W261E [4] = biological target: T2, HuR RRM3 W261E (human, UniProt Q15717 241-326, W261E); assay: NMR
# T2 sequence (Q15717 241-326 W261E): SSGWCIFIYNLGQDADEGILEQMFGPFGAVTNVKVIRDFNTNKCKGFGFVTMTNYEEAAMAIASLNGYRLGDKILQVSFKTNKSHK
# HuR RRM3 [5] = biological target: T1, HuR RRM3; assay: ITC; remark: listed apart in the source
# HuR RRM3 [6] = biological target: T1, HuR RRM3; assay: ITC; remark: listed apart in the source
# HuR RRM3 [7] = biological target: T1, HuR RRM3; assay: NMR; remark: listed apart in the source
# HuR RRM3 [8] = biological target: T1, HuR RRM3; assay: NMR; remark: listed apart in the source
# HuR RRM3 [9] = biological target: T1, HuR RRM3; assay: ITC; remark: listed apart in the source
# HuR RRM3 W261E [10] = biological target: T2, HuR RRM3 W261E; assay: ITC
# T1 sequence (Q15717 241-326): as the sequence (Q15717 241-326 W261E) above, with E21W counted along it
# Chain of HuR RRM3 FY (Q15717 241-326 F247A/Y249A): as the sequence (Q15717 241-326 W261E) above, with F7A, Y9A, E21W counted along it
binder,measurement,setting,value
AUUUU (ssRNA),binding result,HuR RRM3 [1],binds
UUAUU (ssRNA),binding result,HuR RRM3 [1],binds
AUUAUU (ssRNA),Kd,HuR RRM3 [2],5.75 ± 0.27 µM
UUUUA (ssRNA),binding result,HuR RRM3 [1],binds
AUUUUU (ssRNA),Kd,HuR RRM3 [3],4.03 ± 0.25 µM
AUUUUUAUUUU (ssRNA) [c-fos ARE 11-mer],binding result,HuR RRM3 FY,no binding
same,Kd,HuR RRM12,0.14 µM
same,binding result,HuR RRM3 W261E [4],binds
same,Kd,HuR RRM3 [5],0.65 µM
UUUAUU (ssRNA),Kd,HuR RRM3 [6],5.6 ± 0.4 µM
UUUUU (ssRNA),binding result,HuR RRM3 [7],binds
AUUAU (ssRNA),binding result,HuR RRM3 [8],binds
UUUUUU (ssRNA),Kd,HuR RRM3 [9],3.58 ± 0.21 µM
same,binding result,HuR RRM3 W261E [10],binds
